Assay results from article PMC3716694, “Crystal structure of signal regulatory protein gamma (SIRPγ) in complex with an antibody Fab fragment” (BMC Structural Biology, 2013).

Legend:
[1] = target: T1, extracellular region of human signal regulatory protein gamma (SIRPγ) (human, UniProt Q9P1W8-1, high-mannose N-glycans (CHO Lec3.2.8.1); in the crystal de-glycosylated with endoglycosidase F1, N-acetylglucosamine modelled at residue 240); assay: AUC; sedimentation velocity of SIRPγ: FabOX117 mixtures (2:1 and 1:2), total 1 mg/ml (13.7/6.3 μM), 40 000 rpm, 20 mM Tris-HCl pH 7.5, 200 mM NaCl, 20°C; details: both partners purified
T1 construct: SIRPγ, human, residues 29-347 of NP_061026, three Ig-like domains d1-d3; Glycosylated in the AUC experiments, Endo F1-treated in the crystal; also called SIRPβ2

[2] = target: T1, extracellular region of human signal …; assay: AUC; sedimentation equilibrium of SIRPγ: FabOX117 mixtures at 2:1, 1:1 and 1:2, total 1 mg/ml, 15 000, 20 000, 28 000 and 36 000 rpm, fitted to A + B ↔ AB (SEDPHAT), 20 mM Tris-HCl pH 7.5, 200 mM NaCl, 20°C; details: both partners purified

T1 sequence (Q9P1W8 29-347): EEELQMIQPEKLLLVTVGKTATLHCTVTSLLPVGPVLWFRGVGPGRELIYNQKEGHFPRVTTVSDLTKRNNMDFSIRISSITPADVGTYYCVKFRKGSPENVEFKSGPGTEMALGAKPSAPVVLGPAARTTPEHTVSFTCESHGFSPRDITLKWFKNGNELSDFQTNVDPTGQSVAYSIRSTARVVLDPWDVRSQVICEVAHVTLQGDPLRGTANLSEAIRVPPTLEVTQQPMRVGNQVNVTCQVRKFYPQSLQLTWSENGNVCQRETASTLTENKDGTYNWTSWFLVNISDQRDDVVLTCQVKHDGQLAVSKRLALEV

stoichiometry N [1]: 1
Kd [2]: 1200 nM
B1: Fab fragment of the anti-SIRP monoclonal antibody OX117 (Fab, V domains shown)
VH: EVKLQQSGPELVKPGASVKISCKASGYSFTSYYIHWVKQRPGQGLEWIGWVFPGSGNTKYNEKFKGKATLTADTSSSTAYMQLSSLTSEDSAVYFCARGNYDRAWFAYWGQGTLVTVSA
VL: DIVITQSPKFMSTSVGDRVSITCKASQDVSTAVAWFQQKPGQSPKLLIYSASYRYTGVPDRFTGSGSGTDFTFTISSVQAEDLAVYYCQQHYSTPWTFGGGTKLEIK
notes: Fd region (Vh and CH1 domains) of OX117, 220 residues; light chain of OX117, 214 residues; Recombinant Fab; also called FabOX117; not shown: His6, C-terminal, kept
